According to patent US20250066490A1, “ANTI-CD70 ANTIBODIES, CONJUGATES THEREOF AND METHODS OF USING THE SAME” (ProfoundBio US Co., priority 2021, published 2025):
Where two headings read alike, the source gives them in different places.

How the values were obtained:
[1] = system: CD70-negative cell line (MCF-7); assay: Internalization time course, MCF-7; type: cell-based; conditions: MCF-7, up to 4 hr, FIG. 13
Method: Four cell lines ([…]), Caki-1, Raji, MCF-7) were utilized in the internalization assay. Target (CD70) copy numbers were determined via the QIFIKIT (DAKO, K0078). Briefly, cells were labeled with a primary mouse monoclonal antibody against CD70. Cells, Set-up beads, Calibration beads (from the kit) were then labeled in parallel with a fluorescein-conjugated anti-mouse secondary antibody. The fluorescence is correlated with the number of bound primary antibody molecules on the cells and on the beads. Samples were subsequently analyzed on the flow cytometer and copy number determined based on the calibration curve (Table 11). For internalization assay, 3×10^5 cells were incubated at 4° C. for 30 min with 10 µg/ml 2E7 in FACS buffer (1×PBS containing 0.1% BSA). Cells were washed at 4° C. to remove unbound material and kept on ice or shifted to 37° C. for different lengths of time. At progressive timepoints ([…], 0.5, 1, 2, 3, 4 hr) cells were stained with PE-conjugated anti-human Fc for 30 min at 4° C. and analyzed by flow cytometry. Internalization rate were calculated by subtracting the mean fluorescence intensity (MFI) of cell surface-bound antibody at 37° C. at each time point from the MFI of cell surface-bound antibody at 4° C. at time 0, then divided by the MFI of the cell surface-bound antibody at 4° C. at time 0.

[2] = Hydrophobic interaction chromatography (HIC); type: physicochemical; conditions: full IgG
Method: Antibodies were purified from cleared cell culture supernatants using Protein A chromatography (Protein A resin slurry, 4.5 mL, Bogen, Cat #18-0010-02). Briefly, supernatants were prepared for affinity chromatography and loaded onto the columns and allowed to flow completely through the resin. The columns were washed with binding buffer containing 0.15M NaCl and 0.2M PB, PH7.0. Antibody was eluted with elution buffer containing 0.15M NaCl, 0.1M Glycine and 0.2M PB, PH 3.0. Fractions were collected and neutralized by the addition of 1/10 volume of 1M Tris, PH9.0. The fractions were dialyzed for 2 hours against 1×PBS. Purified antibody was quantified by absorbance at A280. Samples from each step of the protein A chromatography were applied onto 12% SDS-PAGE gels for reduced and non-reduced electrophoresis. The hydrophobicity was assessed with hydrophobic interaction chromatography (HIC) on a TSK gel Butyl-NPR, 4.6×100 mm with Butyl-NPR (Tosoh corporation) using a Waters HPLC 2695 system.

[3] = molecular target: T1, human CD70 extra-cellular domain (ECD) (Homo sapiens, UniProt P32970); assay: Biolayer interferometry (BLI), human CD70; type: binding
T1 construct: human, rat, or mouse CD70 extra-cellular domain (ECD) linked to His tag; His tag; purchased ACRO systems
T1 sequence (P32970 39-193 limits assumed): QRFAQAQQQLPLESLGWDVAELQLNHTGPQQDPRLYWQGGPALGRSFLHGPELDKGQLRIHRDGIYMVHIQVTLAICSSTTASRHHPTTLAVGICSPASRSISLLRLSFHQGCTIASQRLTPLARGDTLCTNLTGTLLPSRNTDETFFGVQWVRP
Method: (§1) Recombinant proteins consisting of human, rat, or mouse CD70 extra-cellular domain (ECD) linked to His tag was purchased (from ACRO systems). 69A7 and 2E7 (20 nM) were immobilized on anti-human IgG Fc biosensor tips (ForteBio). Binding assays using one concentration (100 nM) of recombinant protein in solution were performed using Octet RED (ForteBio). Association time was set at 180s and dissociation time was set at 300s. Binding affinity was calculated using ForteBio Data Acquisition 6.3 software. Affinity was derived by fitting the kinetic data to a 1:1 Langmuir binding model utilizing global fitting algorithms. […] Binding assays for 2E7 using multiple dilutions (from 200 nM down to 3.13 nM) of species' recombinant CD70 ECD proteins in solution were also performed using the same method.

[4] = molecular target: T2, rat CD70 extra-cellular domain (ECD) (Rattus norvegicus, UniProt M0R613); assay: Biolayer interferometry (BLI), rat CD70; type: binding; conditions: for Response: *Response below range of quantification
T2 construct: human, rat, or mouse CD70 extra-cellular domain (ECD) linked to His tag; His tag; purchased ACRO systems
T2 sequence (M0R613 1-194): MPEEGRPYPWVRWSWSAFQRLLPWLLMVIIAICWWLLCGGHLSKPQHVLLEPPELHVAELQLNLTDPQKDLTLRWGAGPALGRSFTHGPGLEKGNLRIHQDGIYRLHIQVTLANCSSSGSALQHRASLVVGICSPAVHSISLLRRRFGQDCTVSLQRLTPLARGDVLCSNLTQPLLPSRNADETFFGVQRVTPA
Method: as §1

[5] = molecular target: T3, mouse CD70 extra-cellular domain (ECD) (Mus musculus, UniProt O55237); assay: Biolayer interferometry (BLI), mouse CD70; type: binding; conditions: for Response: *Response below range of quantification
T3 construct: human, rat, or mouse CD70 extra-cellular domain (ECD) linked to His tag; His tag; purchased ACRO systems
T3 sequence (O55237 45-195): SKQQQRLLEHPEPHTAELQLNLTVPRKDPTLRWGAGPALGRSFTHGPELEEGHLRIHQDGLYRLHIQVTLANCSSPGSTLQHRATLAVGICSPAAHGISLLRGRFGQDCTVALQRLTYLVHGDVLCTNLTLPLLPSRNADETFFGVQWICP
Method: as §1

[6] = Hu CD70 100 nM, one concentration
[7] = one concentration (100 nM), Table 9

Response ([3]; HU CD70 3.13 nM): 0.1732 | Response ([3]; HU CD70 6.25 nM): 0.2136 | Response ([3]; HU CD70 12.5 nM): 0.3519 | Response ([3]; HU CD70 25 nM): 0.5319 | Response ([3]; HU CD70 50 nM): 0.6227 | Response ([3]; HU CD70 100 nM, dilution series): 0.7695 | Response ([3]; HU CD70 200 nM): 0.825 | ka ([3]; HU CD70, multiple dilutions 200-3.13 nM, global fit): 314300 M⁻¹ s⁻¹ | Response [3, 6]: 0.5157 | ka [3, 6]: 365000 M⁻¹ s⁻¹ | Kd ([3]; human CD70, multiple dilutions (200 nM down to 3.13 nM), read-out: KD): 0.81 nM | Kd ([3]; human CD70, one concentration (100 nM), read-out: equilibrium dissociation constant (KD)): 0.97 nM | Response ([4]; RAT CD70 3.13 nM): *0.0012 | Response ([4]; RAT CD70 6.25 nM): *0.0192 | Response ([4]; RAT CD70 12.5 nM): *−2.762E−03 | Response ([4]; RAT CD70 25 nM): *0.0069 | Response ([4]; RAT CD70 50 nM): *0.0126 | Response ([4]; RAT CD70 100 nM, dilution series): *0.0271 | Response ([4]; RAT CD70 200 nM): *0.0054 | ka ([4]; RAT CD70, multiple dilutions 200-3.13 nM, global fit, responses below range of quantification): 5.905e+06 M⁻¹ s⁻¹ | Response ([4]; Rat CD70 100 nM, one concentration): *0.0125 | ka ([4]; Rat CD70 100 nM, one concentration, response below range of quantification): 4641 M⁻¹ s⁻¹ | cross-reactivity to rat CD70 ([4]; multiple dilutions, Table 10): no cross-reactivity | cross-reactivity to rat CD70 [4, 7]: no cross-reactivity | Response ([5]; MOUSE CD70 3.13 nM): *−6.014E−03 | Response ([5]; MOUSE CD70 6.25 nM): *−5.879E−03 | Response ([5]; MOUSE CD70 12.5 nM): *−1.516E−03 | Response ([5]; MOUSE CD70 25 nM): *−3.009E−03 | Response ([5]; MOUSE CD70 50 nM): *0.0063 | Response ([5]; MOUSE CD70 100 nM, dilution series): *0.0111 | Response ([5]; MOUSE CD70 200 nM): *0.0012 | ka ([5]; MOUSE CD70, multiple dilutions 200-3.13 nM, global fit, responses below range of quantification): 117000 M⁻¹ s⁻¹ | Response ([5]; MS CD70 100 nM, one concentration): *0.0045 | ka ([5]; MS CD70 100 nM, one concentration, response below range of quantification): 3250 M⁻¹ s⁻¹ | cross-reactivity to mouse CD70 ([5]; multiple dilutions, Table 10): no cross-reactivity | cross-reactivity to mouse CD70 [5, 7]: no cross-reactivity
B1: 2E7: anti-CD70 antibody clone, VH SEQ 7 and VL SEQ 8; tested as scFv and full human IgG1/kappa (antibody, V domains shown)
VH: QVQLQESGPGLVKPSETLSLTCTVSGGSVSSDYYYWSWIRQPPGKGLEWLGYIYYSGSTNYNPSLKSRVTISVDTSKNQFSLKLRSVTTADTAVYYCARGDGDFLGVCFDYWGQGTLVTVSS
VL: EIVLTQSPATLSLSPGERATLSCRASQSVSSYLAWYQQKPGQAPRLLIFDASNRATGIPARFSGSGSGTDFTLTISSLEPEDFAVYYCQQRSNWPLTFGGGTKVEIK
modifications: Synthetic 2E7 VH amino acid sequence; Synthetic 2E7 VL amino acid sequence
notes: tested as scFv and full human IgG1/kappa
internalization, time course [1]: no internalization | hydrophobicity compared with the parent antibody 69A7 ([2]; HIC): slightly more hydrophobic than the parent antibody 69A7 | Retention time ([2]; hydrophobicity by HIC): 10.19 min
